Results reported in patent US20260209346A1 (LTZ THERAPEUTICS, published 2026).

T1: cynomolgus CD79b recombinant protein (cynomolgus)
T1 chain: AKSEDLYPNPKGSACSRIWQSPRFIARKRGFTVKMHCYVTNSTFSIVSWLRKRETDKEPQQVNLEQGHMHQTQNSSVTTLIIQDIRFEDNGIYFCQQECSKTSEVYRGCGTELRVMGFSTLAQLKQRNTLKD

T2: CD79b endogenously expressed on the cell surface (malignant B cell lines, normal B cells in PBMC, CLL … (human, UniProt P40259 29-229))
T2 construct: whole, on cells; On cells CD79b stands in the B-cell receptor complex with CD79a and surface Ig; also called cell surface CD79b; endogenous CD79b
T2 sequence (looked up): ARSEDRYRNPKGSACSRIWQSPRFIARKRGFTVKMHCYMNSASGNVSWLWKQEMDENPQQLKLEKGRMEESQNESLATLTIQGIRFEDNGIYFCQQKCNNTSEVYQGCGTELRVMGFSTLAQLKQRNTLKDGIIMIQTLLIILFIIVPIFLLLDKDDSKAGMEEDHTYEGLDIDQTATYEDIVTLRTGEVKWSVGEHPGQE

T3: human CD79b recombinant protein (human, UniProt P40259 29-159)
T3 construct: also called human CD79b ECD antigen; recombinant human CD79b ECD
T3 sequence: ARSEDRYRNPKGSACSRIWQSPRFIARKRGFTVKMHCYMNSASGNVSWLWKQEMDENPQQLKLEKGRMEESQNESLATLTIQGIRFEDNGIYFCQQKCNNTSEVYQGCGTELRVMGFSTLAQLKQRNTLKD

B1: ch23D8 (antibody, human IgG1, kappa, V domains shown)
VH: QSLEESGGGLVTPGGTLTLTCTVSGLSLSSNAINWVRQAPGKGLEWIGMIYSGGRIEYASWAKGRFTISKTSTTVDLKITSPTTEDTATYFCAKGMSPSAHSSDIWGPGTLVTVSA
VL: AYDMTQTPASVEVAVGGTVTIKCQASQSISDNLSWYQQKPGQPPKLLIYDASDLASGVPSRFSGSGSGTEFTLTISDLEPADAATYYCQQDWISSNVDNTFGGGTEVVVKR
notes: Rabbit/human chimeric IgG1 kappa; also called chimeric 23D8
B2: ch44G2 (antibody, human IgG1, kappa, V domains shown)
VH: QSVRETGGGLVQPGGSLKLSCKASGFTINIDYWISWVRQAPGKGLEWIGIIDPGDGTTYFAIWVSGRFTISFDNTQNTVDLQMNSLTAADTATYFCVREFSASAYQYDLWGPGTLVTVSS
VL: DLVMTQTPSSVSAAVGGTVSINCRASEDIENYLAWYQQKPGQPPKLLIYRASTLSSGVSSRFSGSGSGTEFTLTISGVQPDDAATYYCQQGYRNSNVDNPFGGGTEMVVKR
notes: Rabbit/human chimeric IgG1 kappa; also called chimeric 44G2
B3: polatuzumab (antibody, V domains shown)
VH: EVQLVESGGGLVQPGGSLRLSCAASGYTFSSYWIEWVRQAPGKGLEWIGEILPGGGDTNYNEIFKGRATFSADTSKNTAYLQMNSLRAEDTAVYYCTRRVPIRLDYWGQGTLVTVSS
VL: DIQLTQSPSSLSASVGDRVTITCKASQSVDYEGDSFLNWYQQKPGKAPKLLIYAASNLESGVPSRFSGSGSGTDFTLTISSLQPEDFATYYCQQSNEDPLTFGQGTKVEIKR

Assays:
[1] = biological target: CD79b endogenously expressed on the cell surface (malignant B cell lines, normal B cells in PBMC, CLL patients' B lymphocytes) (human) (UniProt P40259); experiment: flow cytometry quadrant plot, untransfected NALM6 cells; Anti-CD79b-PE against Anti-IgM-APC
[2] = biological target: CD79b endogenously expressed on the cell surface (malignant B cell lines, normal B cells in PBMC, CLL patients' B lymphocytes) (human) (UniProt P40259); experiment: flow cytometry on Nalm-6 cells; anti-human IgG1-PE; MFI (PE); table under the graph; fit of a flat control curve
[3] = biological target: CD79b endogenously expressed on the cell surface (malignant B cell lines, normal B cells in PBMC, CLL patients' B lymphocytes) (human) (UniProt P40259); experiment: flow cytometry on Ramos cells; anti-human IgG1-PE; MFI (PE); table under the graph; fit of a flat control curve
[4] = biological target: CD79b endogenously expressed on the cell surface (malignant B cell lines, normal B cells in PBMC, CLL patients' B lymphocytes) (human) (UniProt P40259); experiment: flow cytometry on SU-DHL-4 cells; anti-human IgG1-PE; MFI (PE); table under the graph; fit of a flat control curve
[5] = biological target: CD79b endogenously expressed on the cell surface (malignant B cell lines, normal B cells in PBMC, CLL patients' B lymphocytes) (human) (UniProt P40259); experiment: flow cytometry on BJAB cells; anti-human IgG1-PE; MFI (PE); table under the graph; fit of a flat control curve
[6] = biological target: CD79b endogenously expressed on the cell surface (malignant B cell lines, normal B cells in PBMC, CLL patients' B lymphocytes) (human) (UniProt P40259); experiment: flow cytometry on PBMC of Donor 2890, B cells marked with CD19-BV421; anti-human IgG1-PE; MFI (PE); table under the graph; fit of a flat control curve
[7] = biological target: T1, cynomolgus CD79b recombinant protein; experiment: ELISA, coated cynomolgus CD79b recombinant protein
Method: (§1) Binding affinities of anti-CD79b antibodies to human and cynomolgus CD79b recombinant proteins were tested by ELISA. 1 ug/ml (in PBS buffer) of human or cynomolgus CD79b recombinant proteins were coated on an ELISA plate overnight. ELISA plates were washed and blocked with blocking buffer (PBS+1% BSA) followed by incubation with serially diluted anti-CD79b primary antibodies. Anti-CD79b antibody binding was quantified using an anti-human IgG HRP secondary antibody (Biolegend Catalog #410902) and HRP substrate.

[8] = biological target: T2, CD79b endogenously expressed on the …; experiment: flow cytometry on Nalm-6 cells; anti-human IgG1-PE; MFI (PE); table under the graph
Method: (§2) The binding affinities of anti-CD79b antibodies to malignant B cell lines were tested. […] The cells were then incubated with 100 μl anti-human IgG1-PE (Invitrogen, cat: 12-4998-82), 1:1000 dilution, for 30 min on ice, washed with 200 ul PBS for three times before flow cytometry analysis.

[9] = biological target: T3, human CD79b recombinant protein; experiment: BLI, antibody captured on anti-human IgG Fc probes, human CD79b in solution, 1:1 model
Method: (§3) Binding affinities of anti-CD79b antibodies to human CD79b recombinant proteins were tested by BLI. 10 ug/ml of anti-CD79b antibodies were captured by anti-human IgG Fc probes (Gator Bio Catalog #160024). […] Absolute kD was determined by applying a 1:1 binding model (Global Rmax unlinked).

[10] = biological target: T2, CD79b endogenously expressed on the …; experiment: flow cytometry on PBMC of Donor 2890, B cells marked with CD19-BV421; anti-human IgG1-PE; MFI (PE); table under the graph
Method: (§4) The binding affinities of anti-CD79b antibodies to endogenous B cells were tested. […] The cells were then incubated with […] mixture of anti-human IgG1-PE (Invitrogen, Cat #: 12-4998-82), 1:1000 dilution; CD19-BV421 (Biolegend, Cat #:302230, 1:400 dilution) for 30 min on ice, and washed with 200 ul PBS for three times before flow cytometry analysis.

[11] = biological target: T2, CD79b endogenously expressed on the …; experiment: flow cytometry on BJAB cells; anti-human IgG1-PE; MFI (PE); table under the graph
Method: as §2

[12] = biological target: T2, CD79b endogenously expressed on the …; experiment: flow cytometry on PBMC of Donor 2235, B cells marked with CD19-BV421; anti-human IgG1-PE; MFI (PE); table under the graph
Method: as §4

[13] = biological target: T2, CD79b endogenously expressed on the …; experiment: flow cytometry on PBMC of CLL Donor 0255 (B lymphocytes); PE goat anti-human IgG Fc; MFI PE
Method: To determine the binding affinities of the anti-CD79b antibodies to cell surface CD79b on Chronic Lymphocytic Leukemia (CLL) patient's B lymphocytes, a cell-based binding assay was conducted. […] CLL patient PBMCs were purchased from the company Bioscience. […] Specifically, 2.5×10⁴ PBMC cells in 50 μl FACS buffer (1×PBS+2% BSA+2 mM EDTA) were seeded in each well of a V bottom 96-well plate. […] The mixture was incubated on ice for 30 minutes, and then washed twice with FACS buffer. The cells were re-suspended in 100 μl FACS buffer containing PE conjugated goat anti-human IgG Fc (1:1000) and anti-human CD19 (BV421), and incubated for 30 minutes on ice in darkness. After washing twice with FACS buffer, the cells were re-suspended in 100 μl of FACS buffer and analyzed with a Cytek cytometer.

[14] = biological target: T2, CD79b endogenously expressed on the …; experiment: flow cytometry on SU-DHL-4 cells; anti-human IgG1-PE; MFI (PE); table under the graph
Method: as §2

[15] = biological target: T2, CD79b endogenously expressed on the …; experiment: flow cytometry on PBMC of Donor 889, B cells marked with CD19-BV421; anti-human IgG1-PE; MFI (PE); table under the graph
Method: as §4

[16] = biological target: T3, human CD79b recombinant protein; experiment: ELISA on recombinant human CD79b ECD; A 450nm
[17] = biological target: T3, human CD79b recombinant protein; experiment: ELISA, coated human CD79b recombinant protein
Method: as §1

[18] = biological target: T3, human CD79b recombinant protein; experiment: BLI; antibody at 10 ug/ml captured on anti-human IgG Fc probes, hCD79b in solution; same value printed in the rows for 18.3 and 9.14 nM hCD79b
Method: as §3

[19] = biological target: T2, CD79b endogenously expressed on the …; experiment: flow cytometry on PBMC of Donor 356, B cells marked with CD19-BV421; anti-human IgG1-PE; MFI (PE); table under the graph
Method: as §4

[20] = biological target: T2, CD79b endogenously expressed on the …; experiment: flow cytometry on Ramos cells; anti-human IgG1-PE; MFI (PE); table under the graph
Method: as §2

[21] = biological target: T2, CD79b endogenously expressed on the …; experiment: flow cytometry on a cell line expressing endogenous CD79b (not named on the sheet or in the text); MFI (PE)
[22] = biological target: T2, CD79b endogenously expressed on the …; experiment: flow cytometry on Daudi cells; anti-human IgG1-PE; MFI (PE); table under the graph
Method: as §2

[23] = biological target: T2, CD79b endogenously expressed on the …; experiment: flow cytometry on PBMC of Donor 356, B cells marked with CD19-BV421; anti-human IgG1-PE; MFI (PE); table under the graph (the graph's legend prints ch44D2)
Method: as §4

[24] = biological target: T3, human CD79b recombinant protein; experiment: BLI; antibody at 10 ug/ml captured on anti-human IgG Fc probes, hCD79b in solution; row for 9.14 nM hCD79b

| Molecule | IC50 [7] | EC50 [8] | EC50 [10] | EC50 [11] | EC50 [12] | EC50 (read off the curve) [13] | EC50 [14] | EC50 [15] | EC50 (read off the curve) [16] | IC50 [17] | EC50 [19] | EC50 [20] | EC50 (read off the curve) [21] | EC50 [22] | also measured |
| --- | --- | --- | --- | --- | --- | --- | --- | --- | --- | --- | --- | --- | --- | --- | --- |
| Isotype (antibody) | – | – | – | – | – | – | – | – | – | – | – | – | – | – | Q3 (percent of cells Anti-CD79b-PE positive, Anti-IgM-APC negative) [1]: 1.16 |
| IgG1 control (antibody) | – | – | – | – | – | – | – | – | – | – | – | – | – | – | EC50 [2]: 8170 pM; EC50 [3]: 10 pM; EC50 [4]: 170 pM; EC50 [5]: 40 pM; EC50 [6]: 163 pM |
| B1 | 570 pM | 4580 pM | 1050 pM | 1060 pM | 921 pM | ~900 pM | 930 pM | 150 pM | ~100 pM | 330 pM | 225 pM | 1400 pM | ~300 pM | 1080 pM | Kd [9]: 320 pM; koff [18]: 7.85e-05 s⁻¹; kon [18]: 245000 M⁻¹ s⁻¹ |
| B2 | 3000 pM | 1590 pM | 675 pM | 670 pM | 727 pM | ~800 pM | 720 pM | 95.5 pM | ~500 pM | 630 pM | – | 860 pM | ~200 pM | 790 pM | EC50 [23]: 357 pM |
| B3 | – | 7850 pM | 1560 pM | 1260 pM | 1980 pM | ~900 pM | 1440 pM | 154 pM | – | 190 pM | 238 pM | 1780 pM | – | 2240 pM | Kd [24]: 417 pM |
